Data on two substances can be found in US20040166543.

One series relates to T1, MUC1/CD(Y46F).
T1 sequence: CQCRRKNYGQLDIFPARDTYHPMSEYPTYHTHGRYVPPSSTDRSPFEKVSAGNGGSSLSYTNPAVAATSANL

Series [1] deals with T2, MUC1/CD (purified hexahistidine tagged MUC1 cytoplasmic domain), unphosphorylated.
T2 sequence: T1 sequence with F46Y

The test system of another series is T3, MUC1/CD(S40A).
T3 sequence: T1 sequence with S40A, F46Y

The next series deals with T4, MUC1/CD (S40A/S44A).
T4 sequence: T1 sequence with S40A, S44A, F46Y

For a further series, the system named is T5, MUC1/CD(T41A).
T5 sequence: T1 sequence with T41A, F46Y

The subject of the next series is T6, MUC1/CD(S44A).
T6 sequence: T1 sequence with S44A, F46Y

Changes are numbered by the printed parent chain.

For “purified c-Src polypeptide (Oncogene Research Products)”, the “phosphorylation of MUC1/CD(Y46F) ([γ-32P]ATP, autoradiography)” value in the series with MUC1/CD(Y46F) was “Incubation of MUC1/CD(Y46F) with c-Src demonstrated a decrease in phosphorylation as compared to that found with wild-type MUC1/CD”. Besides, in series [1], the “phosphorylation of MUC1/CD ([γ-32P]ATP, SDS-PAGE, autoradiography)” value is “demonstrated c-Src-mediated phosphorylation of MUC1/CD”.

“purified recombinant PKCδ (PanVera / Calbiochem-Novabiochem)”: the “phosphorylation ([γ-32P]ATP, autoradiography)” value is on record as “phosphorylation of MUC1 by PKCδ was unaffected by S to A mutations of either or both of the flanking serines” with MUC1/CD(S40A), “phosphorylation of MUC1 by PKCδ was unaffected by S to A mutations of either or both of the flanking serines” in the series with MUC1/CD (S40A/S44A), “PKCδ-mediated phosphorylation of MUC1/CD(T41A) was attenuated compared to that obtained with wild-type MUC1/CD” with MUC1/CD(T41A) and “phosphorylation of MUC1 by PKCδ was unaffected by S to A mutations of either or both of the flanking serines” with MUC1/CD(S44A). For the same substance, the “phosphorylation of MUC1/CD ([γ-32P]ATP, SDS-PAGE, autoradiography)” value in series [1] is recorded as “demonstrated phosphorylation of MUC1 CD”.
